Key:
LRP6 E1 = target: T1, LRP6 E1 (Homo sapiens, UniProt O75581); assay: Biolayer interferometry binding to LRP6 E1
T1 construct: construct E1-amino acids A20-D325 of LPR6; made in house; host or cells: Tni insect cells (baculovirus, secreted)
T1 sequence (O75581 20-325): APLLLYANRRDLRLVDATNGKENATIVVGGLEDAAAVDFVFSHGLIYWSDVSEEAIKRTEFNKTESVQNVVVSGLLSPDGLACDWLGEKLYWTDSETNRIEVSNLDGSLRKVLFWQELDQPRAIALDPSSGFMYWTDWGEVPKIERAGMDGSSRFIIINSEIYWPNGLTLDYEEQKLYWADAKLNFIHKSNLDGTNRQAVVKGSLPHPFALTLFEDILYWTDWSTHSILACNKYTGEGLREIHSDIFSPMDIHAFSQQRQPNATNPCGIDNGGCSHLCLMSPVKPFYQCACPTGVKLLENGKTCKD
Method: (§1) Binding kinetics were measured by biolayer interferometry using an Octet Red instrument (ForteBio) as previously described (11). Streptavidin (SA) biosensors were loaded with biotinylated hLRP6 in 50 mMTris, pH 8, 300 mM NaCl, 5% (v/v) glycerol, and 0.05% (w/v) Triton X-100. The loaded biosensors were washed in the same buffer before carrying out association and dissociation measurements for the indicated times. The Kd of each interaction was determined using steady state-analysis through the Octet Red software v6.3. Each reported value represents an average of three or more experiments at different concentrations, with a fitted experimental curve for which the square of the correlation coefficient (R^2) is above 0.96.
(§2) The interaction of the different Dkks and sclerostin with various domains of LRP6 was measured using a biolayer interferometry assay (11). Purified receptors contained individual β-propeller-EGF-like units (E1, E2, or E4), two β-propellers (E1E2 or E3E4), or four β-propellers (E1E4))—as follows:
(§3) Human LRP6: construct E1E4-amino acids A20-Q1253 of LPR6; construct E1E2-amino acids A20-E631 of LPR6; construct E3E4 amino acids E631-Q1253 of LPR6; construct E1-amino acids A20-D325 of LPR6; construct E2-amino acids […]-E631 of LPR6; construct E4-T933-Q1253. The individual LRP6 β-propeller E3 could not be expressed.

[1] = target: T2, LRP6 E1E2 variants with LRP5 BMD substitutions (Homo sapiens, UniProt O75581, N185S); assay: Steady-state affinity for LRP6 E1E2 variants carrying LRP5 BMD substitutions; type: binding; settings: LRP6 Asn185 to Ser vs wild type LRP6 E1E2
T2 construct: construct E1E2-amino acids A20-E631 of LPR6; made in house; host or cells: insect cells (Tni, baculovirus)
T2 sequence (O75581 20-631 N185S): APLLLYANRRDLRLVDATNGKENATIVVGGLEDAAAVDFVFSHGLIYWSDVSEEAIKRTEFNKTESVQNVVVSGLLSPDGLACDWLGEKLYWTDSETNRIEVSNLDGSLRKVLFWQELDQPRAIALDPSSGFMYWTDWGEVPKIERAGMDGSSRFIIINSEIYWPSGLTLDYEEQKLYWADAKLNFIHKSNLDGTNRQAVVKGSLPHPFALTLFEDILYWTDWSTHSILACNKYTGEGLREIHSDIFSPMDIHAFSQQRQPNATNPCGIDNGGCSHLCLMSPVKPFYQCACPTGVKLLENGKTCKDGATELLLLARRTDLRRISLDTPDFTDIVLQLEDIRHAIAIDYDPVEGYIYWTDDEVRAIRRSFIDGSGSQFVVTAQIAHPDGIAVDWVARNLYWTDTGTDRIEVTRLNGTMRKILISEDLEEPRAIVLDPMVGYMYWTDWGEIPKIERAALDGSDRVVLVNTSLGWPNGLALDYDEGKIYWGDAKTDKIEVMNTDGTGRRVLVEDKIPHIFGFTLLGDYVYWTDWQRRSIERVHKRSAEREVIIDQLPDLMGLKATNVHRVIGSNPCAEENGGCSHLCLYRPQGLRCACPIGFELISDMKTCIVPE
Method: (§4) FIG. 13. Introduction of LRP5 BMD substitutions into LRP6 E1E2 lowers affinity for Wnt inhibitors. The five substitutions characterized are indicated on the y-axis. Steady-state affinity measurements were made for Wnt9b, Dkk1, and sclerostin binding to each of the LRP6 variants.
as §1
(§5) Cells transfected with LRP5 variants carrying BMD mutations show reduced binding to sclerostin and are less sensitive to sclerostin inhibition of Wnt10b or Wnt6 signaling (70). To further test the effects of the BMD substitutions, we introduced several of them into LRP6 E1E2, with the results shown in FIG. 13. LRP6 E1E2 Gly158Val could not be expressed in insect cells. […] Importantly, not only is the binding to sclerostin affected (70), but the binding of Dkk1 to its E1 interaction site is also impaired.

[2] = tested on: LRP6 E1E2 variants with LRP5 BMD substitutions; assay: as above; type: binding, human
Method: as §4, §1, §5

LRP6 E2 = target: T3, LRP6 E2 (Homo sapiens, UniProt O75581); assay: Biolayer interferometry binding to LRP6 E2
T3 construct: construct E2-amino acids D235-E631 of LPR6; made in house; host or cells: Tni insect cells (baculovirus, secreted)
T3 sequence (O75581 325-631 limits assumed): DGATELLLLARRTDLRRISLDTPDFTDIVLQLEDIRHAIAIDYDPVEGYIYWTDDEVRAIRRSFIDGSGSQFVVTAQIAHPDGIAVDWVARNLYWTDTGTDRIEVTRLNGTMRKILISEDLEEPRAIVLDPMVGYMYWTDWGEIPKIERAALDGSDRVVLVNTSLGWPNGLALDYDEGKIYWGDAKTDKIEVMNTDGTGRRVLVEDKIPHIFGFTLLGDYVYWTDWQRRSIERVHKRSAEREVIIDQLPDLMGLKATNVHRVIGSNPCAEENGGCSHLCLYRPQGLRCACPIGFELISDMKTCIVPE
Method: as §1, §2, §3

Row | binding to LRP6 E1 (in words) (LRP6 E1) | loss in affinity for LRP6 E1E2 Asn185Ser [1] | effect of LRP6 BMD mutations on binding to LRP6 E1E2 (in words) [2] | binding to LRP6 E2 (in words) (LRP6 E2) | Substance
1 | bind with high affinity | 183 fold | disrupt the binding | Partial binding | Dkk1: Dickkopf 1 protein, Wnt pathway inhibitor, expressed in insect cells (NSNAIKN)
2 | binds | 59 fold | disrupt the binding | very weak or non-specific binding | sclerostin: Sclerostin protein, Wnt pathway inhibitor, expressed in insect cells (LPNAIGR)

— patent publication US20140235820A1, “METHODS AND COMPOSITIONS FOR MODULATING THE Wnt PATHWAY” (Genentech, Inc., priority 2010, published 2014)
